This note sets out measurements from patent publication US20240343824A1 (MERUS N V, published 2024).

Test [1] deals with human ZNRF3(ECD) on Freestyle 293F cells (human). In words: FACS on a mix of DiD-labelled ZNRF3 over-expressing and unlabelled parental 293F Freestyle cells, secondary reagents (anti-M13 and Strep-PE) only; Q3 0,120% [continued].
The target of test [2] is T1, full length human LGR5-FLAG-HA on Freestyle 293F or CHO-K1 cells (human, UniProt O75473 22-907).
T1 construct: also called hLGR5; hLGR5(FL)
T1 sequence: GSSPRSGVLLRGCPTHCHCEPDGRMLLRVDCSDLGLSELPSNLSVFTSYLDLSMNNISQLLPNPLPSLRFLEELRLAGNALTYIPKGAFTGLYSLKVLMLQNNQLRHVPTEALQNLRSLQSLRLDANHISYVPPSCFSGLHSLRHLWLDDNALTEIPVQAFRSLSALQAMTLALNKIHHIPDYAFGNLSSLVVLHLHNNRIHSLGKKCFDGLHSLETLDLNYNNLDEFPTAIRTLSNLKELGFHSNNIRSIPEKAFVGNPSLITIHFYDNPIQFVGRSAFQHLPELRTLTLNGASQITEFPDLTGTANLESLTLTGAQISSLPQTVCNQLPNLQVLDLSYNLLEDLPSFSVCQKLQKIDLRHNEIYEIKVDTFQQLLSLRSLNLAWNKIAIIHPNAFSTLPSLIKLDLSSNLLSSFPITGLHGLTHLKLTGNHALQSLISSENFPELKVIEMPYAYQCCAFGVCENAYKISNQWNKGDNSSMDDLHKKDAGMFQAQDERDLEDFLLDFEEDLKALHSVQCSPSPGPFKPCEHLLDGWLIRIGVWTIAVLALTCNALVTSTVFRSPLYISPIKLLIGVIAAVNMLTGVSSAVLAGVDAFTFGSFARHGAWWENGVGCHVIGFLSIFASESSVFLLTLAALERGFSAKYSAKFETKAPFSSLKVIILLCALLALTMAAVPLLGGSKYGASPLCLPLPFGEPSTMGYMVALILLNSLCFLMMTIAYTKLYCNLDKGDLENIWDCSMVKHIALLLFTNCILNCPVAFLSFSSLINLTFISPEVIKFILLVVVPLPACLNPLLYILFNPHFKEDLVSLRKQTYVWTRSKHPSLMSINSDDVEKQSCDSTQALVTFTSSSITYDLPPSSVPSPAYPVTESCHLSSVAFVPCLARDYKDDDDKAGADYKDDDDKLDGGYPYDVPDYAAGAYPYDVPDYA
In words: competition FACS on CHO-K1 cells over-expressing human LGR5; competitor PG7711p02 (OMP88R20 copy) fixed at 50 ng/ml, detected with anti-human IgG PE; MFI normalised to no R-spondin1.
Method: The binding of the copied version of OMP88R20 to this cell line was then tested in a dilution series of antibody and the EC50 for binding was determined.
The bispecifics were first tested for binding to the CHO cell clone expressing LGR5 in a concentration range to determine the EC50 for binding in FACS.

Test [3] deals with T2, recombinant human LGR5-Fc (human, UniProt O75473 22-561).
T2 construct: extracellular domain; also called rhLGR5-Fc (RND systems Cat. Nr. 8078-GP); not shown: Fc part of the bought fusion protein
T2 sequence (looked up): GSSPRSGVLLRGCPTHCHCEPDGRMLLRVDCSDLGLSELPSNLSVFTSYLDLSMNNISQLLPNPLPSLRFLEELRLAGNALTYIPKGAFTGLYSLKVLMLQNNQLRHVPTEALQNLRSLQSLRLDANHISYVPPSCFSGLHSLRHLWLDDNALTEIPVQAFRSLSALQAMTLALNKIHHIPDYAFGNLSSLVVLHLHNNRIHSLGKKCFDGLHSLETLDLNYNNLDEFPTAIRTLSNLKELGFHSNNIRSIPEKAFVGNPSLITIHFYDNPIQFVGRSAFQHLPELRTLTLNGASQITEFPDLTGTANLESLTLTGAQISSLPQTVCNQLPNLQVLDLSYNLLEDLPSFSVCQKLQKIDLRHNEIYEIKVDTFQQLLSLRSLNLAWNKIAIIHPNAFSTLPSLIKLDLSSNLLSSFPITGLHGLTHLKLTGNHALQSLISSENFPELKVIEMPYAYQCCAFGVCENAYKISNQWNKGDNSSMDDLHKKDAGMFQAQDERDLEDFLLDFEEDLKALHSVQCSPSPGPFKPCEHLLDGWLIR
In words: R-Spondin3 blocking ELISA: 0,031 µg/ml rhLGR5-Fc on 2 µg/ml coated rhR-Spondin3, competitor 15 µg/ml soluble R-Spondin3, detection anti-Fc, OD450 normalised to maximum binding.

Sequence of human ZNRF3(ECD) on Freestyle 293F cells (human) (chain, as listed by the source): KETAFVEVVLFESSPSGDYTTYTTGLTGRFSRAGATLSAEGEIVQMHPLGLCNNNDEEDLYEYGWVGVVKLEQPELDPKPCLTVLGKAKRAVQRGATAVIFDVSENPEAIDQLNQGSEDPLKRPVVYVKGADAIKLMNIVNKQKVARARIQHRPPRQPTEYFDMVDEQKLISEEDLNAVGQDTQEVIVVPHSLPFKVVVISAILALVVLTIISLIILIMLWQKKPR

As to -Control, in test [1], the % of events in Q2 (DiD-positive and PE-positive) worked out at 0.18%.

B1: R-spondin1 (ligand, UniProt Q2MKA7 21-263, looked up)
chain: SRGIKGKRQRRISAEGSQACAKGCELCSEVNGCLKCSPKLFILLERNDIRQVGVCLPSCPPGYFDARNPDMNKCIKCKIEHCEACFSHNFCTKCKEGLYLHKGRCYPACPEGSSAANGTMECSSPAQCEMSEWSPWGPCSKKQQLCGFRRGSEERTRRVLHAPVGDHAACSDTKETRRCTVRRVPCPEGQKRRKGGQGRRENANRNLARKESKEAGAGSRRRKGQQQQQQQGTVGPLTSAGPA
notes: also called RSPO1; R-spondin1 (R&D Systems, cat. nr. 4645-RF/CF)
For B1, in test [2], the “IC50 (read off the curve)” value was around 10 nM.

B2: recombinant human R-Spondin3 (ligand, UniProt Q9BXY4 22-272, looked up)
chain: QNASRGRRQRRMHPNVSQGCQGGCATCSDYNGCLSCKPRLFFALERIGMKQIGVCLSSCPSGYYGTRYPDINKCTKCKADCDTCFNKNFCTKCKSGFYLHLGKCLDNCPEGLEANNHTMECVSIVHCEVSEWNPWSPCTKKGKTCGFKRGTETRVREIIQHPSAKGNLCPPTNETRKCTVQRKKCQKGERGKKGRERKRKKPNKGESKEAIPDSKSLESSKEIPEQRENKQQQKKRKVQDKQKSVSVSTVH
notes: also called rhR-Spondin3; R-Spondin3 (RND systems)
On to B2, for which the binding result in test [3] is reported as “binds”.
